In patent US20240100176A1, “HUMAN INTERLEUKIN-4 RECEPTOR ALPHA ANTIBODY GLUCOCORTICOID CONJUGATES” (Eli Lilly and Company, priority 2022, published 2024):
Like-named read-outs stand apart in the source and are kept apart here.

Assays:
[1] = target: human FcγRI (CD64) extracellular domain (human) (UniProt P12314); assay: SPR (Biacore), antibody captured on protein A, FcγR ECD as analyte, 25 °C
[2] = target: human FcγRIIA_131H (CD32a) extracellular domain (human) (UniProt P12318); assay: SPR (Biacore), antibody captured on protein A, FcγR ECD as analyte, steady state, 25 °C
human FcγRIIA_131H (CD32a) extracellular domain (human), sequence (P12318 34-217): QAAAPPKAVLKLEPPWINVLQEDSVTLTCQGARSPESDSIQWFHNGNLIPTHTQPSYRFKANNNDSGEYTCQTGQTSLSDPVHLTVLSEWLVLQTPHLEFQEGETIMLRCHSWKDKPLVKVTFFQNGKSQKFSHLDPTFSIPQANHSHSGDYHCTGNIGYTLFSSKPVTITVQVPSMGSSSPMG

[3] = target: human FcγRIIA_131R (CD32a) extracellular domain (human) (UniProt P12318); assay: as above
human FcγRIIA_131R (CD32a) extracellular domain (human), sequence (P12318 34-217 H167R): as the sequence (P12318 34-217) above, with H134R counted along it

[4] = target: human FcγRIIIA_158V (CD16a) extracellular domain (human) (UniProt P08637); assay: as above
human FcγRIIIA_158V (CD16a) extracellular domain (human), sequence (P08637 17-208 F176V): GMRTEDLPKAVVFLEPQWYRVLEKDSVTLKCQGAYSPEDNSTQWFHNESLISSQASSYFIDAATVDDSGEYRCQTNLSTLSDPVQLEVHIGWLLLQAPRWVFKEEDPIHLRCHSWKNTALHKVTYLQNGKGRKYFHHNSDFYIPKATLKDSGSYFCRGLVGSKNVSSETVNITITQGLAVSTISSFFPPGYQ

[5] = target: human FcγRIIb (CD32b) extracellular domain (human) (UniProt P31994); assay: as above
human FcγRIIb (CD32b) extracellular domain (human), sequence (P31994 43-217): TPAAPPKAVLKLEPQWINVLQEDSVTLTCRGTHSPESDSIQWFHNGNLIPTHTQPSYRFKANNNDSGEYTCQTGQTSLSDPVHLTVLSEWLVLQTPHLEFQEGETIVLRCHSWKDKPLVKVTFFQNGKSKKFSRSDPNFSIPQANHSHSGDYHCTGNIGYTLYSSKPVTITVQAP

[6] = target: human FcγRI (CD64) extracellular domain (human) (UniProt P12314); assay: SPR (Biacore), antibody captured on protein A, FcγR ECD as analyte, 25 °C; remark: listed apart in the source
[7] = target: human FcγRIIA_131H (CD32a) extracellular domain (human) (UniProt P12318); assay: SPR (Biacore), antibody captured on protein A, FcγR ECD as analyte, steady state, 25 °C; remark: listed apart in the source
[8] = target: human FcγRIIA_131R (CD32a) extracellular domain (human) (UniProt P12318); assay: as above; remark: listed apart in the source
[9] = target: human FcγRIIIA_158F (CD16a) extracellular domain (human) (UniProt P08637); assay: as above
human FcγRIIIA_158F (CD16a) extracellular domain (human), sequence (P08637 17-208): as the sequence (P08637 17-208 F176V) above, with V160F counted along it

[10] = target: human FcγRIIb (CD32b) extracellular domain (human) (UniProt P31994); assay: as above; remark: listed apart in the source
[11] = target: human FcγRIIIA_158F (CD16a) extracellular domain (human) (UniProt P08637); assay: as above; remark: listed apart in the source

human FcγRI (CD64) extracellular domain (human), sequence (P12314 16-292): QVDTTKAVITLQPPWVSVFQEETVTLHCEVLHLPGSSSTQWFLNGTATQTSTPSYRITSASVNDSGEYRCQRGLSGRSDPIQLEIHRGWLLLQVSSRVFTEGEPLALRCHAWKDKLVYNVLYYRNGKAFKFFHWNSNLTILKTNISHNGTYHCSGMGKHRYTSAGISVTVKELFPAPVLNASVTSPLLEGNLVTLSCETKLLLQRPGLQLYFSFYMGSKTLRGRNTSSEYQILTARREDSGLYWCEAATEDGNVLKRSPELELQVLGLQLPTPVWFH

Row | Kd [1] | Kd [2] | Kd [3] | Kd [4] | Kd [5] | Kd [6] | Kd [7] | Kd [8] | Kd [9] | Kd [10] | Kd [11] | Substance
1 | 0.419 nM | 5310 nM | 2310 nM | 7.35 µM | 2780 nM | – | – | – | – | – | – | Hu IgG4 SP control (antibody)
2 | 0.0521 nM | 680 nM | 740 nM | – | 3110 nM | 0.0559 nM | 690 nM | 760 nM | 910 nM | 3.75 µM | 1290 nM | Hu IgG1 control (antibody)
